Paper PMC8167055

Assays:
LC3B (Homo sapiens) = LC3B (Homo sapiens) (UniProt Q9GZQ8); conditions: cited from earlier work
[1] = biological target: LC3B fused with mCherry (microtubule-associated protein light chain 3) (human) (UniProt Q9GZQ8); experiment: ELISA; plate coated with 5 μg/ml mCherry-LC3B in PBS, blocked with BSA; serial dilutions of TPPP/p25 forms or SYN; detected by TPPP/p25 or SYN antibodies; apparent Kd from hyperbola with a single binding site

| Kd [1] [nM] | Substance | Kd (LC3B (Homo sapiens)) [nM] |
| --- | --- | --- |
|  | SQSTM1/p62 (from UniProt Q13501) | 1500 |
| 21.5 | Tubulin Polymerization Promoting Protein (TPPP/p25), human recombinant with hexaHis tag (from UniProt O94811 1-219) (natural protein; other documents disagree on this pair) |  |
